Source: the RNAGym collection of RNA variant scans (doi:10.1073/pnas.2313332121)

B1: TPR t1 (parent)
chain: GACCAAUCUGCCCUCAGAGCUCGAGAACAUCUUCGGAUGCAGAGGAGGCAGGCUUCGGUGGCGCGAUAGCGCCAACGUCCUCAACCUCCAAUGCAUCCCACCACAUGAUGAUGCCUGAAGAGCCUUGGUUUUUUG

Variants of: B1
Test: polymerase ribozyme fitness, log enrichment relative to wild type (log ratio); higher = more active; in vitro selection for triplet polymerase activity
Method in brief: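 Mutant libraries were PCR-built and transcribed for each subunit of a heterodimeric triplet polymerase ribozyme and selected for one round in triplicate at −7 °C, frozen, before gel excision of extended constructs and streptavidin-bead capture. Input and output libraries were Illumina-sequenced, keeping genotypes with ≥10 input reads and ≥1 read per output. Fitness is a logarithmic ratio of genotype to wild-type enrichment, in base 2, using inverse-variance-weighted replicate averages.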

Variant | polymerase ribozyme fitness (log ratio)
GACCAAUCUGCCAUCAGAGCUCGAGAACAUCUUCGGAUGCAGAGGAGGCAGGCUUCGGUGGCACGAUAGCGCCAACUUCCUCAACCUCCAAUGCAUCCCACCACAAGAUGAUGACUGAAGAGCCUUGGUUUUUUG [C13A G63A G77U U106A C114A] | -6.33
GACCAAUCUGCCAUCAGAGCUCGAGAACAUCUUCGGAUGCAGAGGAGGCAGGCUUCGGUGGCUCGAUAGCGCCAACGUCCUCAACCUCCAAUGCAUCCCACCACAUGAUGACGCCUGAAGAGCCUUGGUUUUUUG [C13A G63U U112C] | -1.77
GACCAAUCUGCCGUCAGAGCUCGAGAACAUCUUCGGAUGCAGAGGAGGCAGGCUUCGGUGGCGCGAUAGCGCCAACGUCCUCCACCUCCAAUGGAUCCCACCACAUGAUGAUGCCUGAUGAGGCUUCGUUUUUUU [C13G A83C C94G A119U C123G G127C G135U] | -3.17
GACCAAUCUGCCAUCAGAGCUCGAGAACAUCUUCGGAUGCAGAGGAGGCAGGCUUCGGUGGCCCGAUAGCGCCAACGUCCUCAACCUCCAAUGCAUCCCACCACAUGAUGAUGCCUGAAGAGCCUUGGUUUUUUG [C13A G63C] | -2.37
GACCAAUCUGCCAUCAGAGCUCGAGAACAUCUUCGGAUGCAGAGGAGGCAGGCUUCGGUGGCUCGAUAGCGCCAACGUCCUCAACCUCCAAUGCAUCCCACCACAUGAUGAUGCCUGAAGAGCCUUGGUUUUUUG [C13A G63U] | -3.09
GACCAAUCUGCCAUCAGAGCUCGAGAACAUCUUCGGAUGCAGAGGAGGCAGGCUUCGGUGUCGCGAUAGCGCCAACGUCCUCAACCUCCAACGCAUCCCACCACAUGAUGAUGACUGAAGAGCCUUGGUUUUUUG [C13A G61U U92C C114A] | -3.9
GACCAAUCUGCCAUCAGAGCUCGAGAACAUCUUCGGAUGCAGAGGAGGCAGGCUUCGGUGGCGCGAUAGCGCCAACGUCCUCAACCUCCAAUGCAUCCCACCACAUGAUGAUGCCUAAAGAGCCUUGGUUUUUUG [C13A G117A] | -4.07
GACCAAUCUGCCGUCAGAGCUCGAGAACAUCUUCGGUCGCAGAGGAGGCAGGCUUCGGUGGCGCGAUAGCGCCAACGUCCUCAACCUCCAAUGCAUCCCACCACAUGAUGAUGCCUGAAGAGCCUUGGUUUUUUG [C13G A37U U38C] | -2.77
GACCAAUCUGCCAUCAGAGCUCGAGAACAUCUUCGGAUGCAGAGGAGGCAGGCUUCGGUGGCGCGAUAGCGCCAACGUCCUCAACCUCCAACGCAUCCCACCACAUGAUGAUGCCUGAAGAGCCUUGGUUUUUUG [C13A U92C] | -3.57
GACCAAUCUGCCGUCAGAGCUCGAGAACAUCUUCGGAUGCAGAGGAGGCAGGCUUCGGUGGCGCGAUAGCGCCCACGUCCUCAACCUCCAAUGCAUCCCACCACAUGAUGAUGCCUGAAGAGCCUUGGUUUUUUG [C13G A74C] | -2.12
GACCAAUCUGCCGUCAGAGCUCGAGAACAUCUUCGGGUGCAGAGGAGGCAGGCUUCGGUGGCGCGAUAGCUCCAACGUCCUCAACCUCCAAUGCAUCCCACGUCAUGAUGAAGCCUUAAGAGCCUUCGUGUUUUG [C13G A37G G71U C102G A103U U112A G117U G127C U130G] | -6.56
GACCAAUCUGCCAUCAGAGCACGAGAACAUCUUCGGCUGCAGAGGAGGCAGGCUUCGGUGGCGCGAUAGCGCCAACGUCCUCAACCUCCAAUACAUCCCACCACAUGAUGAUGCCUGAAGAGCCUUGGUUUUUUG [C13A U21A A37C G93A] | -2.9
GACCAAUCUGCCGUCAGAGUUCGAGAACAUCUUCGGAUGCAGAGGAGGCAGGCUUCGGUGGCGCGAUAGCGCCAACGUCCUCAACCUCCAAUGCAUCCCACCACAUGAUGAUGCCUGAAGAGCCUUGGUUUUUUG [C13G C20U] | -2.34
GACCAAUCUGCCAUCAGAGCUCGAGAACAUCUUCGGAUGCAGAGGAGGCAGGCUUCGGUGGCGCGAUAGCGCCAACGUCCUCAACCUCCAAUGCAUCCCACCACAUGAUGAUGCCUGAAUAGCCUUGGUUUUUUG [C13A G120U] | -0.457
GACCAAUCUGCCGUCAGAGUUCGAGAACAUCUUCGGAUGCAGAGGAGGCAGGCUUCGGUGGCGUGAUAGCGCCAACGUCCUCAACCUCCAAUGCAUCCCACCAAAUGAUGUUGCCUGAAGAGCCUUGGUGUUUUG [C13G C20U C64U C104A A111U U130G] | -5.67
GACCAAUCUGCCAUCAGAGCACGAGAACAUCUUCGGAUGCAGAGGAGGCAGGCCUGGGUGGCGCGAUAGCGCCAACGUCCUCAACAUCCAAUGCAUCCCACCACAGGAUGAUGCCUGAAGAGCUUUGGUUUUUUG [C13A U21A U54C C56G C86A U106G C124U] | -2.59
GACCAAUCUGCCAUCAGAGCUCGAGAACAUCUUCGGAUGCAGAGGAGGCAGGCUUCGGUGGCGCGAUAUCGACAACGUCCUCAACCUCCAAUGCAUCCCACCACAUGAUGAUACCUGAAGAGCCUUGGUUUUUUG [C13A G69U C72A G113A] | -1.88
GACCAAUCUGCCAUCAGAGCUCGAGAACAUCUUCGGAUGCAGAGGAGGCAGGCUUCGGUGGCGCGAUAGCACCAACGUCCUCAACCUCCAAUGCAUCCCACCACAUGAUGAUGCCUGAAGAGCCUUGGUUUUUUG [C13A G71A] | -0.843
GACCAAUCUGCCAUCAGAGCUCGAGAACAUCUUCGGAUGCAGAGGAGGCAGGCUUCGGUGGCGCGAUAGCGCCAACGUCCACAACCUUCAAUGCAUCCCACCACAUGAUAAUGCCUGAAGCGCCUUGGUUUUUUG [C13A U81A C88U G110A A121C] | -2.71
GACCAAUCUGCCGUCAGAGCUCGAGAACAUCUUCGGAUGCAGAGGAGGCAGGCUUCGGUGGCGCGUUAGCGCCAACGUUCUCAACCUCCAAUGCAUCCCACAACAUGAUGAUGCCUGAAGAGCCUUGGUUUUUUG [C13G A66U C79U C102A] | -4.83
GACCAAUCUGCCAUCAGAGCUCGAGAACAUCUUCGGAUGCAGAGGAGGCAGGCUUCGGUGGCGCGAUAGCGCCAACUUCCUCAACCUCCAAUGCAUCCCACCACAAGAUGAUGACUGAAGAGCCUUGGUUUUUUG [C13A G77U U106A C114A] | -4.55

Variant | polymerase ribozyme fitness (log ratio)
GACCAAUCUGCCGUCAGAGCUCGAGAACAUCUUCGGAUGCUGAGGAGGCAGGCUUUGGUGGCGCGAUAGCGCCAACGUCCUCAACCUCCAAUGCAUCCCACCACAUGAUGAUGCCUGAAGGGCCUUGGUUUUUUG [C13G A41U C56U A121G] | 0.91
GACCAAUCUGCCGUCAGAGUUCGAGAACAUCUUCGGAUGCAGAGGAGACAGGCUUCGGUGGCGCGAUAGCGCCAACGUCCUCAACCUCCAAUGCAUCCCACCACAUGAUGAUGCCUGAAGAGCCUUGGUUUUUUG [C13G C20U G48A] | -3.29
GACCAAUCUGCCAUCAGAGCUCGAGAACAUCUUCGGAUGCAGAGGAGGCAGGCUUCGGUGGCGCGAUAGCGCCAACGUCCUCAACCUCCAAUGCAUCCCACCACAUGAUGAUGCCUGAAGAACCUUGGUUUUUUG [C13A G122A] | -2.07
GACCAAUCUGCCGUCAGAGCUCGAGAACAUCUUUGGAUGCAGAGGAGGCAGGCUUCGGUGGCGCGAUAGCGCCAACGUCCUCAACCUCCAAUGCAUCCCACCACAUGAUGAUGCCUGAAGAGCCUUGGUUUUUUG [C13G C34U] | -6.06
GACCAAUCUGCCGUCAGAGCUCGAGAACAUCUUCGGAUGCAGUGGAGGCAGGCUUCGGUGGCGCGAUAGCGCCAAUGUCCUCAACCUCCAAUGCAUCCCACCACAUGAUGAUGCCUGAAGAGGCUUGGUUUUUUG [C13G A43U C76U C123G] | -0.345
GACCAAUCUGCCAUCAGAGCUCGAGAACAUCUUCGGAUGCAGAGGAGGCAGGCUUCGGUGGCGCGAUAGCGCCAACGUCCUCAACCACCAAUGCAUCCCACCACAAGAUGAUGCCUGAAGAGCCUUGGUUUUUUG [C13A U87A U106A] | -2.48
GACCAAUCUGCCAUCAGAGCUCGAGAACAUCUUCGGAUGCAGAGGAGGCAGGCUUCGGUGGCGCGAUAGCACCCACGUCCUCAACCUCCAAUGCAUCCCACCACAUGAUGAUGCCUGAAGAGCCUUGAUUUUUUG [C13A G71A A74C G128A] | -5.69
GACCAAUCUGCCGUCAGAGCUCGAGAACAUCUUCGGAUGCAGAGGUGGCAGGCUUCGGUGGCGCGAUAGCGCCAACGUCCUCAACCUCCAAUGCAUCCCACCACAUGAUGAUGCCUGAAGAGCCUUGGUUUUUUG [C13G A46U] | -2.39
GACCAAUCUGCCGUCAGAGCUUGAGAACAUCUUCGGAUGCAGAGGAGGCAGGCUUCGGUGGCUCGAUAGCGCCAACGUUCUCAACCUCCAAUGCAUCCCACCACAUGAUGAUGCCUGAAGAACCUUGGUUUUUUG [C13G C22U G63U C79U G122A] | -7.09
GACCAAUCUGCCGUCAGAGCUCGAGAACAUCUUCGGAUGCUGAGGAGGCAGGCUUCGGUGGCGCGAUAGCGGCAACGUCCUCAACCUCCAAUGCAUCCCAUCACAUGAUGAUGCCUGAAGAGCCUUGGUUUUUUG [C13G A41U C72G C101U] | -3.53
GACCAAUCUGCCGUCAGAGCUCGAGAACAUCUUCGGAUGCAGAGGAGGCAGGCUUCGGUGGCGCGAUAGCGCCAACGUCCUCAACCUCCAAUGCAUCCCACCACAUGAUGAUGCCUGAAGAGCCUUGGUUUUUUG [C13G] | -1.53
GACCAAUCUGCCAUCAGAGCUCGAGAACAUCUUCGGAUGCAGAGGAGGCAGGCUUCGGUGGCGCGAUAGCGCCAACGUCCUCAACCUCCAAUGCAUCCCACCACAUGAUGAGGCCUGAAGAGCCUUGGUUUUUUG [C13A U112G] | -1.5
GACCAAUCUGCCAUCAGAGCUCGAGAACAUCUUCGGAUGCAGAGGAGGCAGGCUUCGGUGGCGCGAUAGCGCCAACGUCCUCAACCUCCAAUGCAUCCCACCACAUGAUGAGGCCUGAAGGGCCUUGGUUUUUUG [C13A U112G A121G] | -1.42
GACCAAUCUGCCGUCAGAGCUCGAGAACAUCUUCGGAUGCAGAGGAGGCAGGCUUCGGUGGCGCGAUAGCGCCAACGUCCUCUACCUCCAAUGCAUCCCACCACAUGAUGAUGCCUGAAGAGCCUUGGUUUUUUG [C13G A83U] | -2.24
GACCAAUCUGCCAUCAGAGCCCGAGAACAUCUUCGGAUGCAGAGGAGGCAGGCUUCAGGGGCGCGAUAGCGCCAUCGUCCUCAACUUCCAAUGCAUUCCACCACAUGAUGAUGCCUGAAGAGCCUUGGUUUUUUG [C13A U21C G57A U59G A75U C86U C97U] | -5.71
GACCAAUCUGCCAUCAGAGCUCGAGAACAUCUUCGGAUGCAGAGGAGGCAGGCUUCGGUGGCGCGAUAGCGCCAACGUCCUCAACCUCCAAUGCAACCCACCACAUGAUGAUGCCUGAAGAGCCUUGGUUUUUUG [C13A U96A] | -2.64
GACCAAUCUGCCAUCAGAGCUCGAGAACAUCUUCGGAUGCAGAGGAGGCAGGCUUCGGUGCCGCGAUAGCGCCAACGUCCUCAACCUCCCAUGCAUCCCACCACAUGAUGAUGCCUGAAGAGCCUUGGUUUUUUG [C13A G61C A90C] | -5.48
GACCAAUCUGCCAUCAGAGCUCGAGAACAUCUUCGGAUGCAGAGGAGGCAGGCUUCGGUGGCGCGAUAGCGCCAACGACCUCAACCUCCAAUGCAUCCCACCACAUGAUGAUGCCUGAAGAGCCUUGGUUUUUUG [C13A U78A] | -2.18
GACCAAUCUGCCAUCAGAGCUCGAGAACAUCCUCGGAUGCAGAGGAGGCAGGCUUCGGUGGCGCGAUAGCGCCAACGUCCUCAACCUCCAAUGCAUCCCACCACAUGAGGAUGCCUGAACAGCCUUGGUUUUUUG [C13A U32C U109G G120C] | -5.75
GACCAAUCUGCCAUCAGAGCUCGAGAACAUCUUCGGAUGCAGAGGAGGCAGGCUUCGGUGGCGCGAUAGCGCCAACGUCCUCAACCUCCAAUCCAUCCCACCACAUGAUGAUGCCUGAAGAGGCUUGGUUUUUUG [C13A G93C C123G] | -0.906
GACCAAUCUGCCGUCAGAGCUCGAGAACAUCUUCGGAUGCAGAGGAGGCAGGCUUCGGUGGCGCGAUAGCGCCAACGUCCUCAACCUCCAAUGCAUCCCCCCACAUGAUGAUGCCUGAAGAGCCUUGGUUUUUUG [C13G A100C] | -3.31
